{"source": "patent US6890720B1", "about": "“Antigens derived from filaggrin and their use for diagnosing rheumatoid polyarthritis” (Biomerieux, priority 1996, dated 2005)", "molecules": {"B1": {"name": "citrullinated fil-gst: fil-gst deiminated in vitro by rabbit muscle peptidylarginine deiminase (protein)", "chain": "QSESAHGRTGTSTGGRQGSHHKQARDSSRHSTSQEGQDTIHGHPGSSSGGRQGSHYEQLVDRSGHSGSHHSHTTSQGRSDASHGHSGSRSASRQTRNDEQSGDGSRHSGSRHHEASSRADSSGHSQVGQGQSEGPRTSRNWGSSFSQDSDSQGHSEDSERWSGSASRNHHGSAQEQLRDGSRHPRSHQEDRAGHGHSADSSRQSGTRHTQTSSGGQAASSHEQARSSAGERHGSHHQQSADSSRHSGIGHGQASSAVRDSGHRGYSGSQASDNEGHSEDSDTQSVSAHGQAGSHQQSHQESARGRSGETSGHSGSFLYQVSTHE", "modifications": "non-natural residues; left off: a dimerising Fc or GST", "notes": "fil-gst deiminated in vitro by rabbit muscle peptidylarginine deiminase"}}, "key": {"[1]": {"test_system": "AFAs of the sera from patients suffering from RA", "test": "Immunoblot of citrullinated and noncitrullinated fil-gst with individual sera and purified AFAs", "format": "binding, human", "details": "citrullinated fil-gst; purified AFAs 4 μg/ml", "description": "In a first series of experiments (FIG. 4a), the reactivity of noncitrullinated fil-gst (fil-gst alone, 30 minutes at 50° C.) and fil-gst citrullinated with PAD 30 minutes at 50° C. is compared with human sera composed of: • sera from normal persons: T(2) and T(3) • sera from patients suffering from RA having high AFA titers which are detected by immunotransfer on acido-neutral variants of human filaggrin, and by indirect immunofluorescence on cryosections of rat esophagus: RA(6) and RA(8); • anti-filaggrin antibodies purified from the serum from a patient suffering from RA by affinity chromatography, on a column grafted with acido-neutral isoforms of human filaggrin: AFA.\nA positive control is also carried out with the monoclonal antibody AHF2.\nIn a second series of experiments (FIG. 4b), the reactivity of citrullinated fil-gst is confirmed with a largest series of sera: • 4 control sera: T(4) • 4 sera from patients suffering from RA not having AFAs detected by immunotransfer or by indirect immunofluorescence: RA(4) • 9 sera from patients suffering from RA with high AFA titers (three of them (*) were also tested in the first series of experiments): RA(9) • anti-filaggrin antibodies purified by affinity chromatography, on a column grafted with the acido-neutral isoforms of filaggrin, from a pool of sera from 40 patients suffering from RA: AFA • the monoclonal antibodies AHF (1-7). […]"}, "[2]": {"test_system": "serum from a patient suffering from RA", "test": "Dot-blot of peptides and fil-gst before and after PAD, serum from an RA patient", "format": "binding, human", "details": "after citrullination (PAD 30 minutes at 50° C.); 0.5 μg antigen per deposit; serum 1/2000", "description": "These 2 peptides, as well as fil-gst, were citrullinated by the action of PAD, for 30 minutes at 50° C., in the same reaction medium as that indicated in Example 2. The specific conditions for each peptide, and for the fil-gst are the following: • peptide S-47-S (SEQ ID NO:3): 4 mU/μmol arginine • peptide S-35-R (SEQ ID NO:4): 2.7 mU/μmol arginine • fil-gst as indicated in Example 2.\nThe reactivity of each peptide and that of fil-gst, before and after action of the enzyme, towards the monoclonal antibody AHF4, and the serum from a patient suffering from RA, is compared by dot-blot.\nThe operating conditions are the following: • 0.5 μg by deposition of each antigen (peptides, fil-gst, acido-neutral variants of filaggrin (AVF)) • nitrocellulose treatment 45 minutes at 80° C., before immunodetection • RA serum used at the dilution of 1/2000; monoclonal antibody AHF4 used at a concentration of 0.2 μg/ml"}}, "data": [{"molecule": "B1", "values": [{"measurement": "reactivity of antifilaggrin autoantibodies purified by affinity chromatography from RA sera", "setting": "[1]", "result": "recognition of the fragments corresponding to lanes 1 to 5"}, {"measurement": "recognition by the serum from the patient suffering from RA", "setting": "[2]", "result": "recognizes"}]}]}
